We go through 2 molecules from article PMC10338343, “Relaxed targeting rules help PIWI proteins silence transposons”.

The target of this data set is MIWI (Mus musculus, UniProt Q9JMB7 1-862). The experiment in a line: double-filter binding; piRNA-1 guide; 3.5 mM Mg2+; RBNS: 25 mM HEPES-KOH pH 7.9, 110 mM KOAc, 3.5 mM MgOAc, 0.01% Triton X-100, 2 mM DTT, 10% glycerol, 2.5 mg/ml BSA, 0.5 mg/ml yeast tRNA, 100 nM RNA library, 33 C 2 h; double-filter: 30 mM HEPES-KOH pH 7.5, 120 mM KOAc, 3.5 mM MgOAc, 2 mM DTT, 0.01% Triton X-100, 0.1 nM target, 33 C 2 h. Particulars: protein: recombinant, tags: SNAP, 3xFlag, label: 5' 32P.
Sequence of MIWI (Q9JMB7 whole entry): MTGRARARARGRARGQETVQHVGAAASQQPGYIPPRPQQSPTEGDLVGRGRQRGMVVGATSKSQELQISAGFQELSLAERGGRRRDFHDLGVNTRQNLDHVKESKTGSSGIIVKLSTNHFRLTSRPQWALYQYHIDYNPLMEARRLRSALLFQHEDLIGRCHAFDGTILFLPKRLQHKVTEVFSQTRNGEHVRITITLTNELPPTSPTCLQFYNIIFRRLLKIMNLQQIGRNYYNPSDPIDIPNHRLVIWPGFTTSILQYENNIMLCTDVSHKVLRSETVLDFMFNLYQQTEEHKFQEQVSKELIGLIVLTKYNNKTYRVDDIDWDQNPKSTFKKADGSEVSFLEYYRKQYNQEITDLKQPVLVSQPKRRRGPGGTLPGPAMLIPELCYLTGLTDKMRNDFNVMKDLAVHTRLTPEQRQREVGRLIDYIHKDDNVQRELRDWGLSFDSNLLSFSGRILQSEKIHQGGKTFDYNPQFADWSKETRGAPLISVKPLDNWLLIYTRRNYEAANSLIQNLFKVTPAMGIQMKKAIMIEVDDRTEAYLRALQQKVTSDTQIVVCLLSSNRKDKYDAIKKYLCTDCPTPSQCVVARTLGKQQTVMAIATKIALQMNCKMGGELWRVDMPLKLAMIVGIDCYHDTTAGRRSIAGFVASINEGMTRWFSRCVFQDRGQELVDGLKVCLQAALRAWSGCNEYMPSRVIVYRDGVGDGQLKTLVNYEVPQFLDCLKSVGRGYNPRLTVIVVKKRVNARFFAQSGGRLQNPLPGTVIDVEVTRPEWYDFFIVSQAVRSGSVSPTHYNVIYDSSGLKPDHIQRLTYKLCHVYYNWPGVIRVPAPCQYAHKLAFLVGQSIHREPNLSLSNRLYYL

Take AAAAAAAAAAAAAAAAAAAAUACUACCUCA (ssRNA, 5' monophosphate) [piRNA-1 g2-g10 target]: the dissociation constant (Kd) (in general, the constant that tells how readily two partners part at equilibrium) (target pairs to guide g2-g10) was 0.014 ± 0.009 nM.
With AAAAAAAAAAAAAAACAACCUACAAAAAAA (ssRNA, 5' monophosphate) [piRNA-1 g8-g16 target], the Kd (target pairs to guide g8-g16) was found to be 0.08 ± 0.02 nM.
